Among the data in publication doi:10.1101/2024.07.12.603331 are Kd and half-life values, retold here.

In this assay the target is HAstV8 spike protein VP25 (residues S484 to R708) (human astrovirus 8 (HAstV8)). Kind of assay: BLI. (In general: Biolayer interferometry detects binding as a change in optical thickness at a sensor tip.)
Sequence of HAstV8 spike protein VP25 (residues S484 to R708) (human astrovirus 8 (HAstV8)) (Q9IFX1 424-648 limits assumed): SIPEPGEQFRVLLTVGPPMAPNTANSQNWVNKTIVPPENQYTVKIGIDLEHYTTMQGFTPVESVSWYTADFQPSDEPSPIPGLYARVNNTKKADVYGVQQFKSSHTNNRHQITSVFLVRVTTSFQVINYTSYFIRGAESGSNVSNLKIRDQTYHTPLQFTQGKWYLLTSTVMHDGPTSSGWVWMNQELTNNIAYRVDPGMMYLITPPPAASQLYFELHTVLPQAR

Sequence of neonatal Fc receptor (FcRn), recombinant ectodomains (P55899 24-297): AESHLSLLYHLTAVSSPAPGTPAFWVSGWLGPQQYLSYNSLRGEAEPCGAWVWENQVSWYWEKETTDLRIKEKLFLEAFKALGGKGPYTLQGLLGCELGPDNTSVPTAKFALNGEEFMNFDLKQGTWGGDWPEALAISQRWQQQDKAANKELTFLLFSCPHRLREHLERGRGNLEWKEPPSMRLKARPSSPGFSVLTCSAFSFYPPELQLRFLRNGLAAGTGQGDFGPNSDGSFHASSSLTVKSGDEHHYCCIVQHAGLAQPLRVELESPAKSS
Sequence of neonatal Fc receptor (FcRn), recombinant ectodomains (P61769 21-119): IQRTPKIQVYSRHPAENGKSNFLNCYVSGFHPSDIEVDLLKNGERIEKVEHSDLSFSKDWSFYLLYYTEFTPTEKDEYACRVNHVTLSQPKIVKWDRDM

By Kd is commonly meant the equilibrium constant for the complex coming apart. Low readings indicate higher affinity, high ones lower affinity. The half-life is the time in which the quantity being followed falls by half. “neonatal Fc receptor (FcRn), recombinant ectodomains (from UniProt P55899;P61769) (complex)”: the Kd was determined as 623 nM and the half-life was determined as 4.68 s.
